Measurements published in US20240034757A1 (OXFORD UNIVERSITY INNOVATION, published 2024).
Like-named read-outs stand apart in the source and are kept apart here.

B1: CCL8_HUMAN (ligand, UniProt P80075 24-99, looked up)
chain: QPDSVSIPITCCFNVINRKIPIQRLESYTRITNIQCPKEAVIFKTKRGKEVCADPKERWVRDSMKHLDQIFQNLKP
B2: P1243_AMBAM (other)
chain: RNHTEDNSTEYYDYEEARCACPARHLNNTNGTVLKLLGCHYFCNGTLCTAPDGYPCYNLTAQQVRTLTTYPNTSCAVGVCMKGTCVKNGTMEQCFKTP

Assays:
EVA1_RHISA = target: T1, EVA1_RHISA (Rhipicephalus sanguineus, UniProt P0C8E7 21-114); assay: BLI
T1 construct: also called Evasin-1
T1 sequence: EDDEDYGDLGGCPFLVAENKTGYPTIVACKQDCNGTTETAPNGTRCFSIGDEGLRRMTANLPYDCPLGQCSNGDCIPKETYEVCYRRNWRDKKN

P991_AMBCA = target: T2, P991_AMBCA (Amblyomma cajennense, UniProt A0A023FFD0 29-136); assay: BLI
T2 sequence: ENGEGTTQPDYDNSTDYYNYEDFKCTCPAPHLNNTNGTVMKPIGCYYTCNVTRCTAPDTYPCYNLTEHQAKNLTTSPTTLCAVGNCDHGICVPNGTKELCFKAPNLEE

P1182_AMBMA = target: T3, P1182_AMBMA (Amblyomma maculatum, UniProt G3MJ83 27-115); assay: BLI
T3 sequence: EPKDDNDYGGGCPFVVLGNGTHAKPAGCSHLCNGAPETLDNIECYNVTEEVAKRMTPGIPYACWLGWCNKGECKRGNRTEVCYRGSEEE

P1180_AMBTR = target: T4, P1180_AMBTR (Amblyomma triste, UniProt A0A023G6B6 26-116); assay: BLI
T4 sequence: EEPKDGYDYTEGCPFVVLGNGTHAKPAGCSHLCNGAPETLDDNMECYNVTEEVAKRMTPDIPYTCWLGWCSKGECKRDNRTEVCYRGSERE

P983_AMBCA = target: T5, P983_AMBCA (Amblyomma cajennense, UniProt A0A023FFB5 22-119); assay: BLI
T5 sequence: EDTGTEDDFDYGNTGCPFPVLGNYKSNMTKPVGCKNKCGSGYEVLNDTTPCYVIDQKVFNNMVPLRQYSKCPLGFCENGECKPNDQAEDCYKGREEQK

P1183_AMBTR = target: T6, P1183_AMBTR (Amblyomma triste, UniProt A0A023G9N9 26-115); assay: BLI
T6 sequence: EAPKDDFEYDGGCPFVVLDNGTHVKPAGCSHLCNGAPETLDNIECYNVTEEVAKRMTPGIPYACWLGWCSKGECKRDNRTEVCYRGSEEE

P546_AMBCA = target: T7, P546_AMBCA (Amblyomma cajennense, UniProt A0A023FBW7 22-118); assay: BLI
T7 sequence: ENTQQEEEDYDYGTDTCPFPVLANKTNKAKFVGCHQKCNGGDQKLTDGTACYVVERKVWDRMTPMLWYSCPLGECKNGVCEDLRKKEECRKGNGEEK

P974_AMBCA = target: T8, P974_AMBCA (Amblyomma cajennense, UniProt A0A023FDY8 22-118); assay: BLI
T8 sequence: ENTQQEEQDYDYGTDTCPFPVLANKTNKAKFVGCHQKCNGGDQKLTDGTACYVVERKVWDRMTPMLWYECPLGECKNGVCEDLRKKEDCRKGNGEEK

P985_AMBPA = target: T9, P985_AMBPA (Amblyomma parvum, UniProt A0A023FT45 25-132); assay: BLI
T9 sequence: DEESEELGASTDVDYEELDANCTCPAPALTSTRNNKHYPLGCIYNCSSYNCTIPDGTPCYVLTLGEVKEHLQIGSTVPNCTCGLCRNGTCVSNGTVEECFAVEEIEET

P1181_AMBMA = target: T10, P1181_AMBMA (Amblyomma maculatum, UniProt G3MIX6 26-115); assay: BLI
T10 sequence: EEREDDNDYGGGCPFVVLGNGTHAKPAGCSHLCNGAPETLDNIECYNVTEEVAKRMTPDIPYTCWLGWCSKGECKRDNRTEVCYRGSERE

P467_RHIPU = target: T11, P467_RHIPU (Rhipicephalus pulchellus, UniProt L7M8Z8 22-127); assay: BLI
T11 sequence: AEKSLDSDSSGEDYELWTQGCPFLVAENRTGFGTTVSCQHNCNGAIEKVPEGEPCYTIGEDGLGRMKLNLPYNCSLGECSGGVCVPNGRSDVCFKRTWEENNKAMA

P672_RHIPU = target: T12, P672_RHIPU (Rhipicephalus pulchellus, UniProt L7MC74 22-125); assay: BLI
T12 sequence: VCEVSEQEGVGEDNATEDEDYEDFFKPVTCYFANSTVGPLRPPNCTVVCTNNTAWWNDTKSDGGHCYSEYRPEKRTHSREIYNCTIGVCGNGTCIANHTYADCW

P1243_AMBAM = target: B2; assay: BLI
CCL5_HUMAN [1] = target: T13, CCL5_HUMAN (human, UniProt P13501 24-91); assay: cell-based or functional assay
T13 sequence: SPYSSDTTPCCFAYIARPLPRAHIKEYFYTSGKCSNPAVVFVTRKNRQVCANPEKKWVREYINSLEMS

CCL21_HUMAN [2] = target: T14, CCL21_HUMAN (human, UniProt O00585 24-134); assay: BLI
T14 sequence: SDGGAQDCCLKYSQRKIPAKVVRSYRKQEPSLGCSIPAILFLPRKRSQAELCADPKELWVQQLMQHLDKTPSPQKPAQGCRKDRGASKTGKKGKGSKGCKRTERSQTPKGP

CCL23_HUMAN [3] = target: T15, CCL23_HUMAN (human, UniProt P55773 22-120); assay: BLI
T15 sequence: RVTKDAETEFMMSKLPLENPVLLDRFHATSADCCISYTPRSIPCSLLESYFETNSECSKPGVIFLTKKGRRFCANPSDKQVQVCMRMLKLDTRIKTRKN

CCL21_HUMAN [4] = target: T14, CCL21_HUMAN; assay: BLI; remark: listed apart in the source
CCL23_HUMAN [5] = target: T15, CCL23_HUMAN; assay: BLI; remark: listed apart in the source
P1229_IXORI = target: T16, P1229_IXORI (Ixodes ricinus, UniProt A0A0K8R4R9 32-108); assay: BLI
T16 sequence: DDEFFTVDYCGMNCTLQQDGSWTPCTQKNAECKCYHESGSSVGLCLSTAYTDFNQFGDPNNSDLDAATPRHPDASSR

P1156_IXORI = target: T17, P1156_IXORI (Ixodes ricinus, UniProt V5HBW0 29-108); assay: BLI
T17 sequence: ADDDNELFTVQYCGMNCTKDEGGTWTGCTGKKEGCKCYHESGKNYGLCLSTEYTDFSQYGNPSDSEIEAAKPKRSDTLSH

P1170_IXORI = target: T18, P1170_IXORI (Ixodes ricinus, UniProt A0A0K8RD51 29-102); assay: BLI
T18 sequence: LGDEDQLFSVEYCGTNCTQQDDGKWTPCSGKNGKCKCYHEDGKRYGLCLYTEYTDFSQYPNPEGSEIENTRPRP

P1166_IXORI = target: T19, P1166_IXORI (Ixodes ricinus, UniProt A0A0K8RE99 25-110); assay: BLI
T19 sequence: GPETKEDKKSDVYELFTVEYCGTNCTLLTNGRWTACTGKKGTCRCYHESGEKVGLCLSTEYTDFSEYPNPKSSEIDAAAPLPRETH

P1127_IXORI = target: T20, P1127_IXORI (Ixodes ricinus, UniProt A0A0K8RJ67 29-108); assay: BLI
T20 sequence: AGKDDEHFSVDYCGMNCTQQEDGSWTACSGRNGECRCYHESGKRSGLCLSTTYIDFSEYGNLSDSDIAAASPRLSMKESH

P1168_IXORI = target: T21, P1168_IXORI (Ixodes ricinus, UniProt A0A0K8RCU3 25-106); assay: BLI
T21 sequence: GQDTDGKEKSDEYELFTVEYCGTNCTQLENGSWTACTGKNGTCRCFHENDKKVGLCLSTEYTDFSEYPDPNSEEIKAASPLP

P1134_IXORI = target: T22, P1134_IXORI (Ixodes ricinus, UniProt A0A0K8RAI0 32-135); assay: BLI
T22 sequence: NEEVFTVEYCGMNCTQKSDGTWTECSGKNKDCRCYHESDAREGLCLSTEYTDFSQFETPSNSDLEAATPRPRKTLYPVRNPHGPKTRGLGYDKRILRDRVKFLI

P1132_IXORI = target: T23, P1132_IXORI (Ixodes ricinus, UniProt V5GZ08 29-106); assay: BLI
T23 sequence: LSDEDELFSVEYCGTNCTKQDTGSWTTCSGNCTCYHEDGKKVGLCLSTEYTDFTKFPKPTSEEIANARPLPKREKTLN

P1096_IXORI = target: T24, P1096_IXORI (Ixodes ricinus, UniProt A0A0K8RKE4 24-114); assay: BLI
T24 sequence: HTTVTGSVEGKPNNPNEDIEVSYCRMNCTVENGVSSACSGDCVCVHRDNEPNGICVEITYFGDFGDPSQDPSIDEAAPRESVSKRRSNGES

P1095_IXORI = target: T25, P1095_IXORI (Ixodes ricinus, UniProt A0A0K8RCE3 24-112); assay: BLI
T25 sequence: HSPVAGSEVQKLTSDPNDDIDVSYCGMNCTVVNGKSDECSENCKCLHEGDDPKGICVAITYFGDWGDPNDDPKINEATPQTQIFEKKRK

P1174_IXORI = target: T26, P1174_IXORI (Ixodes ricinus, UniProt V5I3C5 28-104); assay: BLI
T26 sequence: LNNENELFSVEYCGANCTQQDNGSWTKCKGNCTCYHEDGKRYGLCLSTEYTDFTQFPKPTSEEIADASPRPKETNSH

CXCL12_HUMAN = CXCL12_HUMAN (human, UniProt P48061 22-89); assay: yeast surface display FACS
CCL8_HUMAN = target: B1; assay: yeast surface display FACS
CCL3_HUMAN = target: T27, CCL3_HUMAN (human, UniProt P10147 24-92); assay: yeast surface display FACS
T27 sequence: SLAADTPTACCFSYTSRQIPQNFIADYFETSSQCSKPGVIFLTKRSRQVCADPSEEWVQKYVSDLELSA

CCL5_HUMAN [6] = target: T13, CCL5_HUMAN; assay: yeast surface display FACS
CCL20_HUMAN = CCL20_HUMAN (human, UniProt P78556 27-96); assay: yeast surface display FACS
CCL11_HUMAN = CCL11_HUMAN (human, UniProt P51671 24-97); assay: yeast surface display FACS
CCL17_HUMAN = target: T28, CCL17_HUMAN (human, UniProt Q92583 24-94); assay: yeast surface display FACS
T28 sequence: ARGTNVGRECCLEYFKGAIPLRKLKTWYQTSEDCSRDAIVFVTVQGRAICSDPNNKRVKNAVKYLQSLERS

Sequence of CXCL12_HUMAN (P48061 22-89 limits assumed): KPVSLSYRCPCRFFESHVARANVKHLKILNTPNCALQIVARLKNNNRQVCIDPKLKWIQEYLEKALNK
Sequence of CCL11_HUMAN (P51671 24-97 limits assumed): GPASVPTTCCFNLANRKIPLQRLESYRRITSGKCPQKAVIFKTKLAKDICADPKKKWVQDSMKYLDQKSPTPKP
Sequence of CCL20_HUMAN (P78556 27-96 limits assumed): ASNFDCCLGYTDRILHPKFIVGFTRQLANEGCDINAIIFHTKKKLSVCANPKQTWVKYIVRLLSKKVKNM

## B1
EVA1_RHISA
  binding result: no binding (tested: 600 nM)
P991_AMBCA
  Kd: 8.79 nM
P1182_AMBMA
  Kd: 29 nM
P1180_AMBTR
  Kd: 3.6 nM
P983_AMBCA
  Kd: 7 nM
P1183_AMBTR
  Kd: 1100 nM
P546_AMBCA
  Kd: 1.3 nM
P974_AMBCA
  Kd: 2.58 nM
P985_AMBPA
  Kd: 6.5 nM
P1181_AMBMA
  Kd: 14 nM
P467_RHIPU
  Kd: 2.85 nM
P672_RHIPU
  Kd: 3.7 nM
P1243_AMBAM
  Kd: 21.9 nM

## B2
CCL5_HUMAN [1]
  IC50, THP1 cell migration: 7.87 nM
CCL21_HUMAN [2]
  Kd: 6.54 nM
CCL23_HUMAN [3]
  Kd: 6.62 nM
CCL21_HUMAN [4]
  Kd: 6.54 nM
CCL23_HUMAN [5]
  Kd: 6.62 nM

B3: CXCL11_HUMAN (ligand)
chain: FPMFKRGRCLCIGPGVKAVKVADIEKASIMYPSNNCDKIEVIITLKENKGQRCLNPKSKQARLIIKKVERKNF
P1229_IXORI
  binding result: no binding (tested: 300 nM)
P1156_IXORI
  binding result: no binding (tested: 300 nM)
P1170_IXORI
  binding result: no binding (tested: 300 nM)
P1166_IXORI
  binding result: no binding (tested: 300 nM)
P1127_IXORI
  binding result: no binding (tested: 300 nM)
P1168_IXORI
  binding result: no binding (tested: 300 nM)
P1134_IXORI
  binding result: no binding (tested: 300 nM)
P1132_IXORI
  binding result: no binding (tested: 300 nM)
P1096_IXORI
  binding result: no binding (tested: 300 nM)
P1095_IXORI
  binding result: no binding (tested: 300 nM)
P1174_IXORI
  binding result: no binding (tested: 300 nM)

B4: P1030_AMBPA (other)
chain: GPPSIPGNESIPGCGDAGTTTAPEDNPKHYGTLTDKKGCTLPIIGTWMTAVDHQHLQGTRGERRGPTGKVNLPASCRKNCHGRQEILRDGIPCRKVVGNPKGSKKHLKSGCLRGKCLAGQCVNDGRRISCYVPRNITDTEPTPGLLAE
CXCL12_HUMAN
  binding result: binds
CCL8_HUMAN
  binding result: binds
CCL3_HUMAN
  binding result: binds
CCL5_HUMAN [6]
  binding result: binds
CCL20_HUMAN
  binding result: binds
CCL11_HUMAN
  binding result: binds
CCL17_HUMAN
  binding result: binds
